According to the DeepSol protein solubility set:

Experiment: soluble on expression in E. coli; label from the status in PepcDB or PDB records

Sequence | soluble on expression in E. coli
MGSDKIHHHHHHMQNPFTTTFSKTPEYTYIHTEKTEEILENFIYDNPSESVYKITGVRGSGKTVILAKVEEELRTNESRYINWLVFDVNPARDILGQIAAMLVKAGFGSQDKKTTGINLSATVMGTGGGIGYTAENNNNFFDIGVEVETMIQAAQKKGKKILIGIDEVSKSEEMIKFASEYGRWLRAGYPVYFVCTGLYENIQELSNVKNLTFFRRAATVKTEPLNMIRMTEMYKSKLDIDSNEAREMAKITKGYAYAFQELGVLYFKKKLDELLEDILPKLKAELFAYSYEKIWEEMTEMDRFLAGLLTEKEEYKREEVLKLMGEKSGSYSMYRDRLIKRGILNSRQGYISLALPYFGEYIKEYC | not soluble
MGSDKIHHHHHHMTTVNETTSQAGLALAQAGSNSAAQGIQDQFLTLLVTQLRNQDPLNPMENAELTSQLAQISTVEGINNLKNTMLAISGQIDVSQSMDAVSMIGKGVLMPGDKVSLGADPNDPAQRGATPFGIDLQGDATKVTVKVLDPSGAVVRTMELGDLKTGVHTLQWDGNNDGGQPLADGKYSITVSASDADANPVKTEALTYGQVKSVAYSTNGLRLDLGLAGQISMLDVRKVIGASGSA | not soluble
LGQTAYQKDSLARLARRGDELGTLARDFNRMGERLQSLIGSQRQLLRDVSHELRSPLARLRIALALAERAEPEARAQMWPRLEQECDRLEALIGEILALARLDAEPGASQRIALLPLLQRLREDALLLAPEQDIRLEVAPDLSIDGWPDMFERAVDNLLRNAVRFNPVGQPLEVRASSAGDYLRLSVRDHGPGIAAELQEQLGEPFFRAPNQSSPGHGLGLAIARRAIERHGGHLRLGNHPDGGFIATLSLPLRRKAT | not soluble
METKKQSESETYVERMVLPEDMDIYEYLYGGRLMEWIDNCASIVATKHCRKRTVTGSIDSLFFLLPIHLGDMVILHGYINYTTKSTMEIEIDVIKEEGLTGIRRYATKAYLTYVAIDSDGRPTEIPQIVPETDEEKRRYQDAEKRAEERRKRLESIKQQLASMVP | not soluble
MGSDKIHHHHHHMRFTEGLWRLREGVQLFRPEQVYEYSCDGKKLILRSPFRRVEHRGQTLQGPVFEIEISSPFENVIRIRFRHFKGVLEKPPYYEIYQDESFTPDIKETEGSFIFTSGKAKAIIRKNPFGVEFFYEDRFLTKSDLGYAVAPEGRFCLERLHLSVGEMIYGLGERFSAFVKNAQRVVMWNEDAGTISDMTYKNIPFYVSIRKYGVFVNDPGKVDFEIATEHVEKVQFSVKGETLDYFIIAGKDLKEVLERYTLLTGRPELPPAWSFGLWLTTSFTTQYDERTVMEFVDGMRERDIPLHVFHFDCFWMKEFHWVDLEWNRENFPDPEGLLKRLKEKGLKVCVWINPYVSQFSSLFDEGKEKGYFLKKPDGDVWQTDDWQPGMAIIDFTNPEVRKWFASKLERLIDMGVDCFKTDFGEKIPTDVVYYDGSDPEKMHNYYTYLYNKVVFETIERKLGKRNAVVFARSATAGSQKFPVHWGGDCLASYESMAETLRGGLSLALCGFGFWSHDIGGFEDITTPDLYKRWVAFGLLSSHSRLHGNSMYKVPWNFDEEAVEVLRFFTKLKCKLMPYIFASAVEVHERGIPVMRPMILEFPDDPTCLYLDRQYMLGESLLVAPIFSETGEVTYYLPEGVWTHFLTGERVEGGRWRTEKYDYFGLPLFTRPNSIIPTGSVDDRPDYDYADGVTLNVFEISNKTAHVYNTRGEVELSVKVERKGNEIHVEVLKDSRKPWKLLFWNERLEAVEGAETRELEKGTEVVLSFQRAILKTK | not soluble
TPQYESTTKMYVLSKQDNNTLTQQDMQTSLSLTKDYAELIKSRTVTEGVIAQLNLDLTHEELLKKMTVDSATDTRILSITVTDADPYEACKIANAIRDVAANHIKNVMDIDAVNVVETANIPDQQSSPSISKN | not soluble
MTIELRDVTMENYFDVLNLDVKEYQKQFIATNAISLAEAYVYTKNGDFVAPLAVYDNDAIIGFVMIAYDKKIGISSGNYLLFRFMIDKNFQNQGYFKPIMDKVLDYVRTAPAGLSNKLWLSYEPENEQARFCYLSYGFKETGEISENEVVAIYDLTIEK | not soluble
AKFREIANIALGKGAAIMADHLHEFIQLPVPHVGPLSYGELHMTLVDVIGRDSSVAVSQRFVGGGIHGEALVCLRGKDINQIGERLGYLLEFTPHNEIILNVSNLLVSSFLTSLGNQLDKQFSLRQPGIVDTITPYNEEQGESGELFTIEYTYMAEALDFECEVLFLIDKPSVEIIYEIMELI | not soluble
GPGSMAHEHGNEFAGPGGGNGGNGGNVMLQCVKQHTDLSHIEDLGSQISAGAGCCGFSREAHGKRGQDLWLQLPLGTQVVDMDTNEVQYDMDEEGMQIVLLEGGQGGKGNAAFANKWHHSPIESTKGLPGNTMLAQIELKTIADCGLIGYPNAGKSSLLSAISASKPTIAPYAFTTLRPYVGVLHDLYGNVCRVADIPGLIEGAYENRGLGHQFLRHVERTKCLALVVDMCNTYVPDTGLRNSSEVLQPWDVVELLLQELEYYLPGMSQRVIMTFANKMDIEKDSTGTATQVKLSELKRRVSMPVFPISAALGIHLGPQHEQTGLAPALQFMCGEVFARQSQEREMRQFRFSHERAQLERAFRAKHNGVFLPQVHALGAHGAEASQDLDDEAADRGGSLVDQQLDFLGNSGLGVKFDAYENSAARGQLHRYRDLTMKGKYWNLTRQDGEVMKGEKWS | not soluble
MDSHCRVRPAGPAVPADCDPPRITHAALAARLGDARLLTLYDQATWSEGPAWWEAQRTLVWSDLVGRRVLGWREDGTVDVLLDATAFTNGNAVDAQQRLVHCEHGRRAITRSDADGQAHLLVGRYAGKRLNSPNDLIVARDGAIWFTDPPFGLRKPSQGCPADPELAHHSVYRLPPDGSPLQRMADLDHPNGLAFSPDEQTLYVSQTPEQGHGSVEITAFAWRDGALHDRRHFASVPDGLPDGFCVDRGGWLWSSSGTGVCVFDSDGQLLGHIPTPGTASNCTFDQAQQRLFITGGPCLWMLPLP | soluble
MGSDKIHHHHHHMQNIIIEARVNELATRIGNPHVPFLPAEVIADAKACHDAGASIFHFHGRNEDGTPSHDPNFYLETNAGIRAQSDILIHPTLGYVANDTDAKGRFAAIEQMMQSAETAPDFAPMDTGSVNVDWWNPDEGKYDTTELIYKNSTGTLMYFADRIRHYNLTPYLVSWNVSFTRQIEQFLKMGVLDAPAYICFCMTDEIIFAGHPGTEAGLDAHTAFLPPEFETVWTVVNYKGDLFQLTEKIIRTGGHISIGLGDYAYMDGSRHMTNAEVIAKVADQARRLGREPASVAETREILNMKTPRIAA | not soluble
MTTMTPDAAGLAALEARLKQDLAWLELPAKSWVPRRVVDGKSVVDVVIVGAGMAGLVASAMLRRLGVDNQLVLDRARAGEEGPWVTFARMRTLRSPKELTGPAMGMPALTFRAFYEAQYGRQAWQALDRAPRTMWMDYLIWYRKVLDLPVRNGVSVERIHARTDELFALDISEGGTSRQILARHVVLATGRDGLGGAYVPSLCDGIDRRFWAHSSAPIDFERLRGRRVAVVGAGASAMDNAAMALEAGAARLDLFIRRADIPRVNKFTGIGSQGVVHGFAGLSDDWKWRFLDHTLKAQTPPPRQSVLRVSAYPQAHFHLASPIDDLAVAGDHLTVTTPKGRYATDFIIFGTGFKVDLALRDELAEFAPHIRFWCDRFPAPDGMDNAELENSPDLGDSFQFLEKEPGACPMLARLHCFNYPATLSHGKLSGDIPAISEGADRLARGIVRRLFVEDREIHFANLKAFATPELAGDEWQDADVTHQPAE | soluble
MGSDKIHHHHHHMRIEVVNVSHIFHRGTPLEKKALENVSLVINEGECLLVAGNTGSGKSTLLQIVAGLIEPTSGDVLYDGERKKGYEIRRNIGIAFQYPEDQFFAERVFDEVAFAVKNFYPDRDPVPLVKKAMEFVGLDFDSFKDRVPFFLSGGEKRRVAIASVIVHEPDILILDEPLVGLDREGKTDLLRIVEKWKTLGKTVILISHDIETVINHVDRVVVLEKGKKVFDGTRMEFLEKYDPRFFTSKMLVMRRLVLKGEDPFSMSDDELLERVCNS | not soluble
MARHSALAQAERLEPLLTTNPLHGATLERIVTHLHDEYGWEELARRVPVKCFQNEPSVGSSLKFLRKTPWAREQVEAEYVKLARREDANPLIDALKRGQALDFTGVSQTKLHAALGWMLRHVEQNAQNLQLYFLPTLAHIQDVNFWPDAEPLPLLNLAIDRSALGAGDYEPGVVAELLRRGADANDPRFWPPLLHTVDVEGQAYQSKTRAPRTDLFDLLLAHGADPALEDSRGNTARSMAEAYGLRAVINKLNTLPAVSGSLEHHHHHH | soluble
